Biological target: the molecule itself
Assay: crystal structure; sitting drop vapor diffusion at 20 °C, 100 mM KH2PO4/citrate pH 4.0-5.0, PEG 300 35-50%; holo, NADP(H)-soaked (binary) and NADP+ + HMCA-soaked (ternary) crystals; dimer interface analysed with PISA

B1: double bond reductase from Nicotiana tabacum (NtDBR) (enzyme, UniProt Q9SLN8 1-343, looked up)
chain: MAEEVSNKQVILKNYVTGYPKESDMEIKNVTIKLKVPEGSNDVVVKNLYLSCDPYMRSRMRKIEGSYVESFAPGSPITGYGVAKVLESGDPKFQKGDLVWGMTGWEEYSIITPTQTLFKIHDKDVPLSYYTGILGMPGMTAYAGFHEVCSPKKGETVFVSAASGAVGQLVGQFAKMLGCYVVGSAGSKEKVDLLKSKFGFDEAFNYKEEQDLSAALKRYFPDGIDIYFENVGGKMLDAVLVNMKLYGRIAVCGMISQYNLEQTEGVHNLFCLITKRIRMEGFLVFDYYHLYPKYLEMVIPQIKAGKVVYVEDVAHGLESAPTALVGLFSGRNIGKQVVMVSRE
Q: How did the “stoichiometry N” value turn out when B1 was run?
A: 2
